In general, EC50 (read off the curve) refers to the concentration at which the effect is half-maximal. Higher therefore signals a need for much substance.

Assay [1] has as its target biotinylated human IL-2Ralpha extracellular domain (residues 1-214) (human) (UniProt P01589). Nature of the assay: bio-layer interferometry equilibrium titration on immobilized hIL-2Rα, response MW normalized.
In assay [2] the target is T1, biotinylated human IL-2 immobilized on streptavidin-coated tips (human, UniProt P60568 21-153, biotinylated (site not stated)).
T1 construct: also called biotinylated hIL-2; immobilized hIL-2; not shown: tags and biotinylation site of the biotinylated hIL-2 construct are not described (the BAP tag is described only for hIL)
T1 sequence (P60568 21-153): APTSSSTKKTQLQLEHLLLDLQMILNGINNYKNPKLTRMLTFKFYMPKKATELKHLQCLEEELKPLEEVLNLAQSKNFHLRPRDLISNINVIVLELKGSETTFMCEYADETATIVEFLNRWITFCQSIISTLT
Nature of the assay: bio-layer interferometry equilibrium titration on immobilized hIL-2, response MW normalized. As to the method:
(§1) Bio-layer interferometry binding studies. […] Less than 5 signal units (nm) of receptor was immobilized to minimize mass transfer effects. […] An irrelevant protein was included in a reference well to subtract non-specific binding. Surface regeneration for all interactions was conducted using a 15 second exposure to 0.1 M glycine pH 3.0. Experiments were carried out in PBSA (phosphate-buffered saline, pH 7.3 plus 0.1% bovine serum albumin (BSA, Thermo Fisher Scientific)) at 25° C. Data was visualized and processed using the Octet® Data Analysis software version 7.1 (Molecular Devices). Equilibrium titration curve fitting and KD value determination was implemented using GraphPad Prism, assuming all binding interactions to be first order.
Background: In BLI a coated tip is dipped into the sample, and binding shifts an interference pattern.

Assay [3] addresses T1, biotinylated human IL-2 immobilized on …. Described as above. As to the method: as §1
The source holds these as a separate data set.

The target in assay [4] is T2, yeast surface-displayed human IL-2 (residues 1-133) (human, UniProt P60568 21-153).
T2 construct: also called hIL-2; not shown: yeast display anchor encoded by the pCT302 vector
T2 sequence (P60568 21-153): as above
Nature of the assay: yeast surface titration on hIL-2-displaying yeast, flow cytometry, normalized MFI. As to the method:
(§2) Yeast surface binding studies. […] Cells were then washed and stained with a 1:200 dilution of Alexa647-conjugated streptavidin (Thermo) in PBSA for 15 minutes at 4° C. After a final wash, cells were analyzed for antibody binding using a CytoFLEX flow cytometer (Beckman Coulter). Background-subtracted and normalized binding curves were fitted to a first-order binding model and equilibrium dissociation constant (KD) values were determined using GraphPad Prism.
(§3) A rapid small-scale HEK 293F cell transfection assay was developed to optimize immunocytokine expression. […] After a 3-day incubation, secreted protein was captured from the supernatant with protein G resin, eluted with 0.1 M glycine pH 2.0, and analyzed via SDS-PAGE. […] Immunocytokine expression was scaled up in HEK 293F cells and the secreted protein was purified via protein G affinity chromatography followed by size-exclusion chromatography.

Assay [5] addresses T3, yeast surface-displayed mouse IL-2 (residues 1-149) (mouse, UniProt P04351 21-169).
T3 construct: range 1-149; also called mIL-2; not shown: yeast display anchor encoded by the pCT302 vector
T3 sequence (looked up): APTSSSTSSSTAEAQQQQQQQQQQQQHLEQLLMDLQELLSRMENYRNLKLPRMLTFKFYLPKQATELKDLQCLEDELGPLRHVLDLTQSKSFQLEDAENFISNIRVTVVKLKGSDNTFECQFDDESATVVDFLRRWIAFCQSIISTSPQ
Nature of the assay: yeast surface titration on mIL-2-displaying yeast, flow cytometry, normalized MFI. A general note: Flow cytometry measures light scatter and fluorescence of single cells or particles in a stream.

Assay [6] addresses T2, yeast surface-displayed human IL-2 …. Nature of the assay: yeast surface titration on hIL-2-displaying yeast, flow cytometry, normalized MFI. As to the method:
as §2
The source holds these as a separate data set.

The target is the same in assay [7]. Nature of the assay: yeast surface display titration of soluble antibody, flow cytometry; apparent bivalent affinity. The procedure:
as §2, §3

Like-named read-outs stand apart in the source and are kept apart here.

“hIL-2/F5111 complex (from UniProt P60568 21-153)” showed an EC50 (read off the curve) in assay [1] of 8 nM.
The same measure, in the same setting: as for “human IL-2 cytokine (residues 1-133), soluble, C-terminal hexahistidine tag (from UniProt P60568 21-153) (ligand)”, the figure is 5 nM.

B1: recombinant F5111 antibody (human IgG1 lambda) (antibody, V domains shown)
VH: QLQLQESGPGLVKPSQTLSLTCTVSGGSISSGGYYWSWIRQHPGKGLEWIGYIYYSGSTYYNPSLKSRVTISVDTSKNQFSLKLSSVTAADTAVYYCARTPTVTGDWFDPWGRGTLVTVSS
VL: NFMLTQPHSVSESPGKTVTISCTRSSGSIASNYVQWYQQRPGSSPTTVIYEDNQRPSGVPDRFSGSIDSSSNSASLTISGLKTEDEADYYCQSYDSSNVVFGGGTKLTVLG
notes: also called F5111 Ab; monoclonal antibody F5111
Take B1: the 50% effective concentration (EC50 (read off the curve)) was roughly 0.6 nM in assay [2], roughly 3 nM in assay [3] and roughly 0.08 nM in assay [6]. The Kd in assay [4] came to 0.42 nM; in assay [7] it was 0.43 nM. Also, in assay [5], the binding result is “no binding (tested: about 1e-7 M)”.

For the origin of these results see patent US20220160891A1 (Johns Hopkins, published 2022).
